The source of these data is paper doi:10.1101/490516, “Molecular mechanism of the Orai channel activation” (bioRxiv, 2018).

The data set concerns the molecule itself. Briefly: crystal structure; 4.5 Å, molecular replacement with the closed Orai structure 4HKR; protein in NG/NM with POPC:POPE:POPG; sitting drop, 0.05 M NaCl, 0.02 M MgCl2, 0.1 M sodium citrate pH 6.5, 16%-20% PEG400, 17 °C.

B1: dOrai-P288L channel (Drosophila melanogaster Orai, amino acids 132-341, C224S, C283T, P288L) (domain or fragment, UniProt Q9U6B8 132-341, looked up)
chain: SMSQSGEDLHSPTYLSWRKLQLSRAKLKASSKTSALLSGFAMVAMVEVQLDHDTNVPPGMLIAFAICTTLLVAVHMLALMISTCILPNIETVSNLHSISLVHESPHERLHWYIETAWAFSTLLGLILFLLEIAILCWVKFYDLSPPAAWSATVVLILVMIIFMAFAIHFYRSLVSHKYEVTVSGIRELEMLKEQMEQDHLEHHNNIRNNG
notes: Orai, Drosophila melanogaster, Uniprot Q9U6B8, amino acid residues 132-341 with C224S, C283T and P288L; codons optimized for Homo sapiens; pEG-BacMam vector; PreScission site and eGFP at the C-terminus, eGFP cleaved by 3C protease on the Ni-NTA beads; No His tag is described, though Ni-NTA beads were used; it probably left with the eGFP; also called dOrai1-P288L; open Orai channel; source: …
With B1, the “stoichiometry N” value is 6.

As usually defined, the stoichiometry N is a count of units in the complex or per binding partner.
